Molecular target: T1, human CD112-Fc fusion protein (human, UniProt Q92692 32-360)
T1 sequence (looked up): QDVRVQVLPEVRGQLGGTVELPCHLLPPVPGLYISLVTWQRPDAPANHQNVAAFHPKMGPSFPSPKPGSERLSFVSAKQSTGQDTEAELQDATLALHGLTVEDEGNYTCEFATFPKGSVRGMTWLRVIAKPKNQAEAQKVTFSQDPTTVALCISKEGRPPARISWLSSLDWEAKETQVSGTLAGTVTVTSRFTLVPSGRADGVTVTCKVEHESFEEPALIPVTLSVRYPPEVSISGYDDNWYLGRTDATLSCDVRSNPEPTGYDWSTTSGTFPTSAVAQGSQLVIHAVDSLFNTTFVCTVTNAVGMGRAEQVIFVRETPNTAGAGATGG
Assay: competition by flow cytometry on protein-coated beads

B1: human CD226-Fc fusion protein (Fc fusion, UniProt Q15762 19-254, looked up)
chain: EEVLWHTSVPFAENMSLECVYPSMGILTQVEWFKIGTQQDSIAIFSPTHGMVIRKPYAERVYFLNSTMASNNMTLFFRNASEDDVGYYSCSLYTYPQGTWQKVIQVVQSDSFEAAVPSNSHIVSEPGKNVTLTCQPQMTWPVQAVRWEKIQPRQIDLLTYCNLVHGRNFTSKFPRQIVSNCSHGRWSVIVIPDVTVSDSGLYRCYLQASAGENETFVMRLTVAEGKTDNQYTLFVA
**Q.** Does B1 bind?
**A.** binds

Source: PMC4749091 (The Journal of Experimental Medicine, 2016)
